# Target: HOXD13 DNA binding domain (D13DBD) (Mus musculus, UniProt P70217)
# Test: NMR
binder,measurement,value
HOXD13 duplex DNA (dsDNA) DNA 1: CAACGTTAAAAC DNA 2: GTTTTAACGTTG,binding result,binds
